Results reported in publication PMC1266349, “Nonnatural amino acid incorporation into the methionine 214 position of the metzincin Pseudomonas aeruginosa alkaline protease” (BMC Biochemistry, 2005).

Test system: N=C(N)NCCC[C@H](NC(=O)OCc1ccccc1)C(=O)N[C@@H](CCCNC(=N)N)C(=O)Nc1ccc([N+](=O)[O-])cc1
Assay: purified protein
Conditions: 20 mM HEPES, 100 μg enzyme per assay; revised conditions, unlabelled recombinant protein

For “AprA (alkaline protease from Pseudomonas aeruginosa), mature full-length (Pseudomonas aeruginosa PAO1)”, the Km was 15.4 ± 0.9 µM and the kcat was 0.0095 ± 0.00033 s⁻¹.
